Where a chain is given by its changes, count along the chain named.
T1: human DLL3 (Delta-like ligand 3) (human, UniProt Q9NYJ7 27-618)
T1 construct: endogenous on SHP-77 cells; also called cell-surface DLL3
T1 sequence: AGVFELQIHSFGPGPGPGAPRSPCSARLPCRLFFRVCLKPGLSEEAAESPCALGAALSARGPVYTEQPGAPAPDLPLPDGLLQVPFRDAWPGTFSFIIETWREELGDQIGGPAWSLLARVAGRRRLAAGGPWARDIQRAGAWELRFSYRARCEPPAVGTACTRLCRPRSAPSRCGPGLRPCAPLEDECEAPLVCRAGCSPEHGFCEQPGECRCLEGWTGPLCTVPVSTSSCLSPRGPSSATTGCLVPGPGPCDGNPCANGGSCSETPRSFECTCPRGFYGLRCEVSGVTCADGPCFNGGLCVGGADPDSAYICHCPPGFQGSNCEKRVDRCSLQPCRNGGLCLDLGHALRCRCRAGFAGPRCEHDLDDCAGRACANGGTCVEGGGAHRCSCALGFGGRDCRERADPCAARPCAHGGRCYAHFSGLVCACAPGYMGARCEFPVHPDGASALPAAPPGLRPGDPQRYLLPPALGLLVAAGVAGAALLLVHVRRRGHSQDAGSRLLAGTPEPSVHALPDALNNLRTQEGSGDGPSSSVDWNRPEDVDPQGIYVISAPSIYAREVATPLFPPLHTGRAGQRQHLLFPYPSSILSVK

B1: hz6C5v6 (Fc fusion)
VHH: EVQLVESGGGEVQPGGSLRLSCAASEITFSDKTVGWYRQAPGKQRVLVAVISNVDATNYAESVKGRFTISRDNAKNTVYLQMSSLRAEDTAVYYCHARDFENEYWGQGTLVTVKP
notes: tested as VHH-human Fc; Fc not specified
B2: hz8E7v13 (Fc fusion)
VHH: EVQLVESGGGEVQPGGSLRLSCGPSEIITSDKSMGWWRQAPGKQRNLVAGISNVGSTNYAQSVKGRFTISRDNAKNTVYLQMSSLRAEDTAVYYCYARDFENEYWGQGTLVTVKP
notes: as for B1
B3: hz8E7v12 (Fc fusion)
VHH: B2 VHH with M34V, Q44G, N46E, V78L
notes: as for B1
B4: hz8E7v14 (Fc fusion)
VHH: B2 VHH with M34V, W37V
notes: as for B1
B5: hz8E7v15 (Fc fusion)
VHH: B2 VHH with W37V, V78L
notes: as for B1
B6: hz8E7v16 (Fc fusion)
VHH: B2 VHH with W37V
notes: as for B1
B7: hz10D9v8 (Fc fusion)
VHH: EVQLVESGGGEVQPGGSLRLSCAASGFTFSINAMGWYRQAPGKQRELVAGFTGDTNTIYAESVKGRFTISRDNAKNTVYLQMSSLRAEDTAVYYCAADVQLFSRDYEFYWGQGTLVTVKP
notes: as for B1
B8: hz10D9v12 (Fc fusion)
VHH: B7 VHH with F27S, T28I, N32Y
notes: as for B1
B9: hz10D9v10 (Fc fusion)
VHH: B7 VHH with F27S, T28I, I31S
notes: as for B1
B10: hz10D9v11 (Fc fusion)
VHH: B7 VHH with T28I, I31S, N32Y
notes: as for B1
B11: hz10D9v13 (Fc fusion)
VHH: B7 VHH with T28I
notes: as for B1
B12: hz10D9v9 (Fc fusion)
VHH: B7 VHH with I31S, N32Y
notes: as for B1
B13: hz5A8v11 (Fc fusion)
VHH: EVQLVESGGGEVQPGGSLRLSCAASGSIFSINAMGWYRQAPGKQREWVAVVSSDGRTTVAPSVKGRFTISRDNAKNTVYLQMSSLRAEDTAVYYCGVREWYSDSDWRDYEGQGTLVTVKP
notes: as for B1
B14: hz5A8v10 (Fc fusion)
VHH: B13 VHH with W47L, G55A, S104A
notes: as for B1
B15: hz6C5v2 (Fc fusion)
VHH: B1 VHH with A56S
notes: as for B1
B16: hz6F1v4 (Fc fusion)
VHH: B1 VHH with A23G, T28I, A56S, H96Y, N102S
notes: as for B1
B17: hz8E7v3 (Fc fusion)
VHH: B2 VHH with M34V, V78L
notes: as for B1
B18: hz6F1v3 (Fc fusion)
VHH: B1 VHH with T28I, A56S, E61Q, H96Y, N102S
notes: as for B1
B19: hz6F1v5 (Fc fusion)
VHH: B1 VHH with T28I, A56S, H96Y, N102S, Q107R, L110Q
notes: as for B1
B20: hz8E7v1 (Fc fusion)
VHH: B2 VHH with G23A, P24A, M34V, Q61E, V78L
notes: as for B1
B21: hz8E7v2 (Fc fusion)
VHH: B2 VHH with G23A, P24A, M34V, V78L
notes: as for B1
B22: hz6C5v5 (Fc fusion)
VHH: B1 VHH with D55E, A56S
notes: as for B1
B23: hz6C5v4 (Fc fusion)
VHH: B1 VHH with A23G, A56S
notes: as for B1
B24: hz6F1v2 (Fc fusion)
VHH: B1 VHH with T28I, A56S, H96Y, N102S
notes: as for B1
B25: hz6C5v3 (Fc fusion)
VHH: B1 VHH with A56S, E61H
notes: as for B1
B26: hz6F1v6 (Fc fusion)
VHH: B1 VHH with T28I, D55E, A56S, H96Y, N102S
notes: as for B1
B27: hz6F1v7 (Fc fusion)
VHH: B1 VHH with T28I, H96Y, N102S
notes: as for B1
B28: hz6F1v1 (Fc fusion)
VHH: B1 VHH with T28I, A56S, V78L, H96Y, N102S
notes: as for B1
B29: hz8E7v4 (Fc fusion)
VHH: B2 VHH with G23A, P24A, M34V, V78L, Y79F
notes: as for B1
B30: hz10E5v1 (Fc fusion)
VHH: EVQLVESGGGEVQPGGSLRLSCAASGFTLDDYTIGWFRQAPGKEREGVSCISSSGGSTYYAESVKGRFTISRDNAKNTLYLQMSSLRAEDTAVYYCATYCPVVVGPELGYDYWGQGTLVTVKP
notes: as for B1
B31: hz10E5v5 (Fc fusion)
VHH: B30 VHH with A40F
notes: as for B1
B32: L10E5 (Fc fusion)
VHH: EVQLVQSGGGLVQPGGSLRLSCAASGFTLDDYTIGWFRQFPGKEREGVSCISSSGGSTYYADSVKGRFTISRDNAKNTVWLQMNDLKSEDTAIYYCATYCPVVVGPELGYDYWGQGTQVTVKP
notes: as for B1
B33: hz10E5v3 (Fc fusion)
VHH: B30 VHH with S84N, S85D
notes: as for B1
B34: hz10E5v4 (Fc fusion)
VHH: B30 VHH with R87K, A88S, V93I
notes: as for B1
B35: hz10E5v2 (Fc fusion)
VHH: B30 VHH with L79V, Y80W
notes: as for B1
B36: hz5A8v2 (Fc fusion)
VHH: B13 VHH with W47L
notes: as for B1
B37: hz5A8v6 (Fc fusion)
VHH: B13 VHH with W47L, D54E
notes: as for B1
B38: hz5A8v7 (Fc fusion)
VHH: B13 VHH with W47L, G55A
notes: as for B1
B39: hz5A8v8 (Fc fusion)
VHH: B13 VHH with W47L, S104A
notes: as for B1
B40: hz5A8v9 (Fc fusion)
VHH: B13 VHH with W47L, D103E
notes: as for B1
B41: hz5A8v3 (Fc fusion)
VHH: B13 VHH with A40V, P41L, W47L
notes: as for B1
B42: hz5A8v1 (Fc fusion)
VHH: B13 VHH with W47L, P61E
notes: as for B1
B43: hz5A8v4 (Fc fusion)
VHH: B13 VHH with W47L, Y79S
notes: as for B1
B44: L6C5 (Fc fusion)
VHH: QVQLQESGGGLVQTGGSLTLSCGASEITFSDKTVGWYRQAPGKQRVLVAVISNVDSTNYAHSVKGRFTISRDNAKNTVYLQMNSLKPEDTAVYYCHARDFENEYWGRGTQVTVKP
notes: as for B1

Target: T1, human DLL3 (Delta-like ligand 3)
Assay: flow cytometry, SHP-77 cells

| binding result | Binder |
| --- | --- |
| binds | B1 |
| binds | B2 |
| binds | B3 |
| binds | B4 |
| binds | B5 |
| binds | B6 |
| binds | B7 |
| binds | B8 |
| binds | B9 |
| binds | B10 |
| binds | B11 |
| binds | B12 |
| binds | B13 |
| binds | B14 |

Target: T1, human DLL3 (Delta-like ligand 3)
Assay: flow cytometry, sdAb-Fc titrated on SHP-77 cells (DLL3 positive), APC anti-human Fc secondary
Description: FIGS. 2A-L set forth a series of graphs depicting the ability of sdAb and humanized variants thereof targeting DLL3 to bind cell surface DLL3.
Specificity and relative affinity were assessed for purified sdAb-Fcs on DLL3-expressing cells. […] A titration series of the fusion protein was incubated with the DLL3-expressing cell lines (approximately 2.5×10⁴ to 5×10⁴ cells/well) for 30 minutes at 4 degrees Celsius in FACS Buffer (PBS 1% BSA, 0.1% NaN₃ pH 7.4) in 96-well plates. Following three wash steps in FACS buffer, an APC-conjugated anti-human Fcγ specific secondary antibody (Jackson ImmunoResearch) was added and incubated for 30 minutes at 4 degrees Celsius. Following three additional wash steps in FACS buffer bound antibody was detected via flow cytometry (IQue Intellicyte).

| binding result | EC50 (read off the curve) | Binder |
| --- | --- | --- |
| binds |  | B15 |
| binds |  | B16 |
| binds |  | B17 |
| binds |  | B18 |
| binds |  | B19 |
| binds |  | B20 |
| binds |  | B21 |
| binds |  | B22 |
| binds |  | B23 |
| binds |  | B24 |
| binds |  | B25 |
| binds |  | B26 |
| binds |  | B27 |
|  | ~0.5 nM | B28 |
| binds |  | B29 |
|  | ~5 nM | B30 |
|  | ~7 nM | B31 |
|  | ~3 nM | B32 |
|  | ~7 nM | B33 |
|  | ~10 nM | B34 |
|  | ~7 nM | B35 |
| binds |  | B36 |
| binds |  | B37 |
| binds |  | B38 |
| binds |  | B39 |
| binds |  | B40 |
| binds |  | B41 |
|  | ~2 nM | B42 |
| binds |  | B43 |
| binds |  | B44 |

From patent US20210380679A1 (INHIBRX BIOSCIENCES, published 2021)
